{"source": "paper PMC8287548", "key": {"[1]": {"biological_target": "SpyCatcher-HPF (not stated | Helicobacter pylori)", "experiment": "SPR"}, "[2]": {"biological_target": "SpyCatcher-HPF (not stated | Helicobacter pylori)", "experiment": "covalent conjugation"}}, "data": [{"substance": "SpyTag-RBD (from UniProt P0DTC2 319-541)", "values": [{"measurement": "Kd", "setting": "[1]", "value": 2680, "unit": "nM"}, {"measurement": "conjugation efficiency", "setting": "[2]", "value": "< 40", "unit": "%"}]}]}
